According to the supplement of paper PMC12042874:
± gives the uncertainty stated by the source.

Experiment: amyloid nucleation score (Sup35N fusion, yeast selection) (log enrichment); library NNK2; higher = more nucleation; inactive = no reads after selection
Summary of the method: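 After 24 hours of induction with 100 μM copper sulfate, psi-negative yeast expressing peptides of 20 random codons fused to Sup35N were grown for 7 days at 30°C on medium lacking adenine and uracil. Input and output plasmid inserts were sequenced with Illumina, and sequences with under 100 input reads were discarded. Scores for nucleation are the DiMSum log enrichment of output over input reads, centred on the mode score of non-aggregating sequences.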

Row | Substance | amyloid nucleation score
1 | AWGGSRNRMYFYHSPVRFFE | 4.5 ± 0.088
2 | ATARS | 0.701 ± 0.29
3 | KINVSRFN | -0.146 ± 0.33
4 | GMLSTTALNLLNMVICYYSL | 5.447 ± 0.035
5 | SIPSCCWSLMGFNIIELDDG | 0.173 ± 1.1
6 | HTKMYRAAARMVGAGNDFDM | 0.146 ± 0.46
7 | TLQCDVNTVLILHVYTTYKS | 1.13 ± 0.24
8 | YLIISMRFISSTQYRFFSVH | 0.498 ± 0.19
9 | SLSRRQLTIPPVTTRVIQSH | 0.637 ± 0.25
10 | FLRENLCTDVGLTHVCCTYT | inactive
11 | FPLRCFTIFSMRASNF | 0.615 ± 0.66
12 | CIMPVCVYDCLPLGRGIYWR | 0.745 ± 0.22
13 | DRIAETSRYKRSENSLSLV | 0.099 ± 0.53
14 | RALRVRILYCEARRMCFMAN | 0.236 ± 1.1
15 | LVQLMMMFWKRGLRDSANMV | -1.13 ± 0.78
16 | LINCSSTLITIYSRYNAMYF | 5.415 ± 0.049
17 | KGGLRISSLVTYM | 0.274 ± 1.1
18 | TCVAACTSRRGGISRLLPGN | -0.295 ± 0.38
19 | VDLSLTHYCARSNYLGGPSF | 3.17 ± 0.076
20 | TFLWK | -0.349 ± 0.55
21 | IVCTYFHSTPSCYRLASNWY | 0.284 ± 1.1
22 | YRMCLLRYT | -0.936 ± 0.55

Row | Substance | amyloid nucleation score
23 | KGGWNKGEPMFFLVMCMYVN | 4.8 ± 0.054
24 | GRPAAHAPSHPTRSVLGMS | 0.763 ± 0.47
25 | SLNNIRLLTHYLDFGVRNLA | 3.04 ± 0.092
26 | ECTYNKSWHQTWVTTRHGSS | 0.613 ± 0.23
27 | YMYDVRICPFDNWVYRRNEC | -0.107 ± 0.74
28 | ISVFLVMQRCVYDSYAFQAE | -0.503 ± 0.63
29 | WNTLKVAGSVGGTAVDQVAV | 1.33 ± 0.34
30 | NNVSLPYMSSIVIIGLIRR | 7.193 ± 0.057
31 | NLDGIVRMTN | -0.543 ± 0.56
32 | IYQIGDEQHDFLCPLKVFVN | -0.336 ± 0.76
33 | GLRTLERSDVSVGVRRYLG | 1.33 ± 0.51
34 | YFSFFVSKVTGGWSCHVESA | -0.004 ± 0.34
35 | FKFVYNVKCPYWWTLSFMEV | 0.75 ± 0.47
36 | CWMFVVHIAIWGGVSLDGIV | 0.208 ± 1.1
37 | RANGLSFCTSLLLGEYLNNG | 2.63 ± 0.078
38 | SSLHACA | 2.21 ± 0.29
39 | GDSVLLYKWYMLGCWPIGSC | 4.31 ± 0.056
40 | NTLITRVHHDQLPRLSDLLL | 1.28 ± 0.38
41 | NFTYVSIVMLLSRVWVGFNK | inactive
42 | FFCSSRPDE | -0.286 ± 0.8
43 | FILRGDNLC | -1.01 ± 1
44 | IVLSGWLSSPSYASWDFCMR | 0.07 ± 0.77

Row | Substance | amyloid nucleation score
45 | YMSARVMFGGEPCCCGSGGE | 1.74 ± 0.27
46 | ERIHSSCNYTFAFLLGFMSV | 0.053 ± 0.54
47 | VARFILHCY | -0.492 ± 0.28
48 | TLQLSSADPGLNAFSDVYRV | -0.627 ± 1.1
49 | YWANGSDEDSVGGNIDAVGD | -1.07 ± 0.55
50 | NTLEPWMKYSMCLFDKISPT | -0.391 ± 0.49
51 | HCSDFDLVSAKWSSQWARNG | 1.13 ± 0.4
52 | GIVFIYMNRPSFVVDDLTAG | 7.27 ± 0.078
53 | CFWWNPGSILIRWCLKVLPG | -1.59 ± 0.54
54 | SKFDLYAKFMIRINRLFVLW | -1.59 ± 0.41
55 | PPGFMYLYCGLYAQSSRSSW | 0.546 ± 0.5
56 | CRYEIKLCYDLMQNPLFTRS | -0.522 ± 0.41
57 | RCEAAMWMLASYRVCVTLSC | -0.525 ± 1.1
58 | DDVMMILGNNTSYVLFNMPC | inactive
59 | MFMTVRWNVAINLELFTVID | -0.34 ± 0.39
60 | SSSFHKYRRALWKRKRTWVV | 5.63 ± 0.081
61 | GLHLHSVAEYVCWGTPLSRL | 0.119 ± 0.76
62 | ICFNTSLVPECKHSRSEFDS | 0.643 ± 0.64
63 | SNYLAPYNNSDATYCG | -0.361 ± 0.54
64 | IIMFRVYVM | -0.964 ± 0.76
65 | ILYGSGVFSSG | -1.17 ± 1.1
66 | PQINMGVLAGGVYHYSTCGK | 0.196 ± 0.74

Row | Substance | amyloid nucleation score
67 | LVCGHRPNVAAGTQGDCGRW | 1.04 ± 0.32
68 | LNFIGFK | 0.102 ± 0.74
69 | NVRDMCLSACTSQWYYYFAV | 0.371 ± 0.37
70 | AFGKACPGMCMTKFTACTNR | 0.569 ± 0.13
71 | VIYMNAGLYLRLKRRFDYVV | 0.72 ± 0.58
72 | LLRLRECQV | 2.73 ± 0.14
73 | LMCVLTIL | 1.25 ± 0.32
74 | SPLASYIAVLWGNVR | -0.515 ± 1.1
75 | SYTSGYLLVYPFVNIVVFYP | -1.64 ± 1.1
76 | TGSVDSSSIV | 0.093 ± 0.42
77 | DSFLLTPDLRDMYEL | -0.681 ± 0.26
78 | TFFMVGNMNNTPSPRPARTK | 4.57 ± 0.089
79 | VVSFNWLEYVSNMSQMNWDG | -0.015 ± 0.63
80 | STTLIEFSLYIRYYTND | 4.64 ± 0.084
81 | LLCYRWGHVN | 0.057 ± 0.76
82 | RGLLLSTMRGHIDSLRLS | inactive
83 | YNRGMQLIAVVL | 0.725 ± 0.39
84 | LRVRGRFLNSWSASPRSSDY | 3.58 ± 0.053
85 | RVNEMWIQI | -0.138 ± 0.76
